Test results: PMC11338267, “Phosphoglycerate kinase is a central leverage point in Parkinson’s disease–driven neuronal metabolic deficits” (Science Advances, 2024)

Biological target: T1, untagged PGK1 (phosphoglycerate kinase 1), cleaved from His-SUMO-PGK1 (UniProt P00558 1-417)
T1 construct: phosphoglycerate kinase 1 (PGK1), full-length protein; also called His-tagged SUMO-PGK1; cleaved PGK1; source: E. coli BL21 (DE3), purified (Ni-NTA, SUMO protease cleavage, second Ni-NTA flow-through, Superdex200 gel filtration)
T1 sequence (looked up): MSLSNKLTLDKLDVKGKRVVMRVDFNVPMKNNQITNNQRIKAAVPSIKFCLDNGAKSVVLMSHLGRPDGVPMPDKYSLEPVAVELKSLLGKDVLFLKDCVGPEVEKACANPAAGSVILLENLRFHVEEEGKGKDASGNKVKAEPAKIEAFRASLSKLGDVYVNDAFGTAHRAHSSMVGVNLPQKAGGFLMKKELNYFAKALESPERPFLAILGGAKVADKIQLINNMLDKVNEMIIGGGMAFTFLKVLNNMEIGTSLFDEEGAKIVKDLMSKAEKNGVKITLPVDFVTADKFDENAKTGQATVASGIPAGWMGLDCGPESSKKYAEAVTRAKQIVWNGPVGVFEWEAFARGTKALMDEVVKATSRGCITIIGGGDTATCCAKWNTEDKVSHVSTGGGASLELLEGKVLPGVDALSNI
Assay: MST; His-DJ-1 labelled with RED-tris-NTA (10 ul of 100 nM added to each sample), PGK1 titrated in a 16-step 1:1 serial dilution from a 152 uM stock; PBS-T buffer; 30 min at room temperature in the dark; Monolith NT.115, 40% LED, medium MST power
Details: both partners purified

B1: His-tagged DJ-1 full-length protein (natural protein, UniProt Q99497 1-189, looked up)
chain: MASKRALVILAKGAEEMETVIPVDVMRRAGIKVTVAGLAGKDPVQCSRDVVICPDASLEDAKKEGPYDVVVLPGGNLGAQNLSESAAVKEILKEQENRKGLIAAICAGPTALLAHEIGFGSKVTTHPLAKDKMMNGGHYTYSENRVEKDGLILTSRGPGTSFEFALAIVEALNGKEVAAQVKAPLVLKD
notes: DJ-1 (product of the PARK7 gene), full-length protein; For MST the His tag was labelled non-covalently with the dye RED-tris-NTA; also called His-DJ-1; PARK7/DJ-1; source: E. coli BL21 (DE3), purified (Ni-NTA, Superdex200 gel filtration)
- Kd: ~15 µM
